The target of this assay is T1, human Complement Factor D (CFD), purified from human serum (human, UniProt P00746 26-253).
T1 construct: serum purified (CompTech A136); also called serum purified CFD; hCFD-Comptech
Put plainly: SPR MX96, mAbs amine-coupled, CFD injected.

T1 sequence (P00746 26-253): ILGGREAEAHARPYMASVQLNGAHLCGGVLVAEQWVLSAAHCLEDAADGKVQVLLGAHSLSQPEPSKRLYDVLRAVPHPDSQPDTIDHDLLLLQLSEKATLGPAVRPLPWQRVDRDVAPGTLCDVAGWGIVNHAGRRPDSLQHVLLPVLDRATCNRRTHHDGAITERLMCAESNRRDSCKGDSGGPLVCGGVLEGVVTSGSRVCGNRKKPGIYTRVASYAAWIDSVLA

B1: KCD065 (antibody, V domains shown)
VH: QVQLQQSGAELARPGASVKMSCKASGYTFTTYTIHWVKQRPGQGLEWIGYINPSSDFTNYNQNFADKATLTADRSSSTAYMQLSSLTSEESAVYYCAIRLGYDRQGWYFDVWGAGTTVTVSS
VL: DIVMTQSHKFLSTSLGDRVSITCKASQDVGSAVAWYQQKPGQSPDLLIYWTFTRHTGVPDRFTGSRSGTDFTLTISNVQSGDLADYFCQQYSNYPLTFGGGTKLEIK
In turn, B1 gave a Kd of 3.28 nM.

B2: KCD230 (antibody, V domains shown)
VH: QVQLQQPGTELVKPGASVKLPCKASGYTFTSYWMQWVKQRPGQGLEWIGEIDPSDTYINYNQKFKGKATLTVDTSSTTAYMQLSSLTSEDSAVYYCARYTTIMASDYWGQGTTLTVSS
VL: DIQMTQTTSSLSVSLGDRVTISCRASQDITNYLNWYQQKPDGTVKLLIYFTSRLHSGVPSRFSGSGSGTDYSLTISNLEPEDIATYYCQQYSKLPWTFGGGTKLEIK
Consider B2, for which binding was characterised by a dissociation constant (Kd) of 2.48 nM.

B3: KCD008 (antibody, V domains shown)
VH: EVQLQQSGPELVKAGASVKMSCTASGFNIKDTYMHWVKQRPEQGLAWIGRIDPANGNIKYDPKFQGKATITADTSSNTAYLQLSSLTSDDTAVYYCTSAMDYWGQGTSVTVSS
VL: QIVLTQSPEIMSASPGEKVTMTCSARSSVSYMYWYQQKPGSSPRLLIYDTSNLASGVPVRFSGSGSGTSYSLTISRMETEDAATYYCQQWSTYPFTFGSGTKLEIK
Molecule B3 returned a Kd of 4.38 nM.

B4: KCD047 (antibody, V domains shown)
VH: EVQLQQSGAEFVKPGASVRLSCTASGFNIKDTYMHWVKQRPEQGLEWIGRIDPANGYTKDDPKFQGKATITADTSSNTAYLQLSSLTSEDTAVYYCASAMDYWGQGTSVTVSS
VL: QIVLTQSPAVMSASPGEKVAMTCSASSSVTYMYWYQQKPGSSPRLLIYDTSNLASGVPVRFSGSGSGTSYSLTISRMEAEDAATYYCQQWSTYPFPFGSGTKLEIK
B4 displayed a Kd of 4.37 nM.

B5: KCD040 (antibody, V domains shown)
VH: EVQLQQSGAELVKPGASVKLSCTASDFNIKDTYMHWVMQRPEQGLEWIGKIDPANGNTEFDPKFQGKATITADTSSNTAYLQLTSLTSEDTAVYYCTRAMDYWGQGTSVTVSS
VL: QIVLTQSPAIMSASPGEKVTMTCSAGSSVSYMYWYQQKPGSSPRVLIYDTSNLASGVPVRFSGSGSGTSYSLTISRMEAEDAATYYCQQWSNYPYTFGGGTKLEIK
Consider B5, for which the affinity, expressed as Kd, was 1.93 nM.

B6: KCD013 (antibody, V domains shown)
VH: EVQLQQSGAELVKPGASVKLSCTASGFKIKDTYMHWVKERPDQGLEWIGRIDPANGNTKYDPKFQGKATITADTSSNTAYLQLSSLTSEDTAVYYCANAMDYWGQGTSVTVSS
VL: QIILTQSPAIMSASPGEKVTMTCSASSSVSNMYWYQQKPGSSPRLLIYDTSNLASGVPVRFSGSGSGASYSLTISRMEAEDAATYYCQQWSSYPWTFGGGTKLEIK
Molecule B6 came in with a Kd of 7.32 nM.

B7: KCD114 (antibody, V domains shown)
VH: EVQLQQSGPELVKPGASVKISCKASGYSFTAYYMNWVKQSPEKSLEWIGDINPSTGGTTYNQNFKAKATLTVDKSSSTAYMHLKSLTSEDSAVYYCATTYYSGNSYVGFAYWGQGTLVTVSA
VL: DIVMTQSHKFMSTSVGDRVSITCKASQDVSTAVAWYQQKPGQSPKLLIFWASTRHTGVPDRFTGSGSGTDYTLTISSVQAEDLALYYCQQHYSTPWTFGGGTKLEIK
Turning to B7, the Kd turned out to be 8.06 nM.

B8: KCD139 (antibody, V domains shown)
VH: EVQLQQSGAELVRPGSSVKMSCKTSGYTFTSYGINWVKQRPGQGLEWIGYIYIANGYTENNEKFKGKAKLTSDISSSTAYMQLSSLTSEDSAIYFCARRFDYAGALDYWGQGTSVTVSS
VL: DIVLTQSPASLAVSLGQRATISCRASESVDSYGNSFMHWYQQKPGQPPKLLIHRASNLESGIPARFSGSGSRTDFTLTINPVEADDVAIYYCQQTNDDPYTFGGGTNLEIK
In the case of B8, the Kd is 5.28 nM.

B9: KCD018 (antibody, V domains shown)
VH: QVQLQQSAAELARPGASVKMSCKASGYTFTSYTVHWVKQRPGQGLEWIGYINPSSGFTDYNQKFKDKTTLTADISSSTAYIQLSSLTSEDSAVYYCARRGVNWSWFAYWGQGTLVTVSA
VL: NIMMTQSPSSLAVSAGEKVTMSCKSSQSVLYSSNQKNYLAWYQQKPGQSPQLLIYWASTRESGVPERFTGSGSGTDFTLTISSVQAEDLAVYYCHQYLSSWTFGGGTKLEIK
The molecule B9 showed a Kd of 40.8 nM.

B10: KCD135 (antibody, V domains shown)
VH: EVQLQQSGPELVKPGASVRMSCKASGYIFTDYSIHWVKQSHGKSLEWIGYINPNNGGTSYNQKFKGKATLTVNKSSTTAYMELRSLTSEDSAVYFCARDTTIVGDYWGQGTTLTVSS
VL: DIVMTQSQKFMSTSVGDRVSVTCKASQHVGTNVVWYQQKPGQSPKALIYSASYRYSGVPDRFSGSGSGTDFTLTISNVQSEDLAEYFCQQFNSYPLTFGGGTKLEIK
With B10, the affinity, expressed as Kd, was 21.2 nM.

B11: KCD030 (antibody, V domains shown)
VH: QVQLQQSGAELAKPGASVKMSCKASGYTFTNYWMHWVKQRPGQGLEWIGYINPSIGYTEYNQKFKDKATLTADKSSSTAYMQLSSLTSEDSAVFYCATFIYYAMDYWGQGTSVTVSS
VL: DIQMNQSPSSLSASLGDTITITCHASQNINVWLSWYQQKPGNIPKLLIYKASNLHTGVPSRFSGSGSGTGFTLTISSLQPEDIATYYCQQGQSYPYTFGGGTKLEIK
With B11, the Kd worked out at 4.17 nM.

B12: KCD004 (antibody, V domains shown)
VH: EVQLQQSGAELVRPGSSVKMSCKTSGKTFTSHGINWVKQRPGQGLEWIGYIYIGNGYNEYNEKFKGKATLTSDTSSSTAYMQLSSLTFEDSAIYFCVRKAYGNYGFDDWGQGTTLTVSS
VL: DIQMTQSPTSLSASLGESVSLTCRASQEISGYLNWLQQKPDGSIKRLIYAASTLDSGVPKRFSGSRSGSDYSLTISSLESEDFADYYCLQYANYPFTFGSGTKLEVK
notes: also called OG2063
B12: binding was put at a Kd of 0.353 nM.

B13: KCD126 (antibody, V domains shown)
VH: EVQLQQSGAELVRPGSSVKMSCKTSGKTFTSHGINWVKQRPGQGLEWIGYIYIGNGYNEYNEKFKGKATLTSDTSSSTAYMQLSSLTFEDSAIYFCVRKAYGNYGFDDWGQGTTLTVSS
VL: DIQMTQSPTSLSASLGESVSLTCRASQEISGNLNWLQQKPDGSIKRLIYAASTLDSGVPKRFSGSRSGSDYSLTISSLESEDFADYYCLQYANYPFTFGSGTKLEVK
Molecule B13 came in with a Kd of 0.34 nM.

B14: KCD205 (antibody, V domains shown)
VH: EVQLQQSGAELVRPGSSVKMSCKTSGNTFTSHGINWVKQRPGQGLEWIGYIYIGNGYNEYNEKFKGKATLTSDTSSSTAYMQLSSLTSEDSAIYFCVRKAYGNYGFDDWGQGTTLTVSS
VL: DIQMTQSPSSLSASLGERVSLTCRASQEISGYLSWLQQKPDGTIKRLIYAASTLDSGVPKRFSGSSSGSDYSLTISSLESDDFADYYCLQYASYPFTFGSGTKLEIK
B14: the Kd came out at 2.98 nM.

B15: KCD125 (antibody, V domains shown)
VH: EVQLQQSGAELVRPGSSVKMSCKTSGNTFTSYGINWVKQRPGQGLEWIGYIYIGTGYTEYNEKFKGKATLTSDTSSSTAYMQLSSLTSEDSAIYFCVRKAYGNYGFDYWGQGTTLTVSS
VL: DIQMTQSPSSLSASLGERVSLTCRASQEISGYLSWLQQKPDGTIKRLIYAASTLDSGVPKRFSGSRSGSDYSLTISSLESEDFADYYCLQYASYPFTFGSGTKLEIK
Regarding B15, the Kd was determined as 3.75 nM.

Source of the values: patent US20180334496A1 (KODIAK SCIENCES, published 2018).
